# Biological target: T1, human neonatal Fc-receptor (FcRn) (human, UniProt P55899 24-297; P61769 21-119, limits assumed)
# T1 construct: also called the receptor
# Test: FcRn affinity chromatography
retention time [min],Molecule,binding result
45.2,anti-HER2 antibody with symmetric mutation K288E,–
52,anti-HER2 antibody with symmetric mutation N434H,–
46.2,anti-HER2 antibody with symmetric mutation D98E,–
46.3,anti-HER2 antibody with symmetric mutation K317H,–
46.3,"anti-HER2 antibody, wild-type",–
46.4,anti-HER2 antibody with symmetric mutation E430H,–
45.5,anti-HER2 antibody with symmetric mutation L309H,–
46.2,anti-HER2 antibody with symmetric mutation K290H,–
46,anti-HER2 antibody with symmetric mutation T256H,–
46.3,anti-HER2 antibody with symmetric mutation Q311H,–

# Continued, molecule first:
Molecule,retention time [min],binding result
anti-HER2 antibody with symmetric mutation E258H,45.6,–
anti-HER2 antibody with symmetric mutation R255D,41.4,–
"IgG1 Fc-region with L234A/L235A/P329G and H310A/H433A/Y436A (other, Symmetric mutations in both Fc chains; also called HHY-AAA) DKTHTCPPCPAPEAAGGPSVFLFPPKPKDTLMISRTPEVTCVVVDVSHEDPEVKFNWYVDGVEVHNAKTKPREEQYNSTYRVVSVLTVLAQDWLNGKEYKCKVSNKALGAPIEKTISKAKGQPREPQVYTLPPSRDELTKNQVSLTCLVKGFYPSDIAVEWESNGQPENNYKTTPPVLDSDGSFFLYSKLTVDKSRWQQGNVFSCSVMHEALANHATQKSLSLSPGK",–,no binding (tested: retention time below 3 minutes)
"IgG1 Fc-region with L234A/L235A/P329G and H310A/Y436A (other, Symmetric mutations in both Fc chains) DKTHTCPPCPAPEAAGGPSVFLFPPKPKDTLMISRTPEVTCVVVDVSHEDPEVKFNWYVDGVEVHNAKTKPREEQYNSTYRVVSVLTVLAQDWLNGKEYKCKVSNKALGAPIEKTISKAKGQPREPQVYTLPPSRDELTKNQVSLTCLVKGFYPSDIAVEWESNGQPENNYKTTPPVLDSDGSFFLYSKLTVDKSRWQQGNVFSCSVMHEALHNHATQKSLSLSPGK",–,no binding (tested: retention time below 3 minutes)
"IgG1 Fc-region with L234A/L235A/P329G and I253A/H435A (other, Symmetric mutations in both Fc chains) DKTHTCPPCPAPEAAGGPSVFLFPPKPKDTLMASRTPEVTCVVVDVSHEDPEVKFNWYVDGVEVHNAKTKPREEQYNSTYRVVSVLTVLHQDWLNGKEYKCKVSNKALGAPIEKTISKAKGQPREPQVYTLPPSRDELTKNQVSLTCLVKGFYPSDIAVEWESNGQPENNYKTTPPVLDSDGSFFLYSKLTVDKSRWQQGNVFSCSVMHEALHNAYTQKSLSLSPGK",–,no binding (tested: retention time below 3 minutes)
"IgG1 Fc-region with L234A/L235A/P329G and I253A/H310A/H435A (other, Symmetric mutations in both Fc chains; also called IHH-AAA) DKTHTCPPCPAPEAAGGPSVFLFPPKPKDTLMASRTPEVTCVVVDVSHEDPEVKFNWYVDGVEVHNAKTKPREEQYNSTYRVVSVLTVLAQDWLNGKEYKCKVSNKALGAPIEKTISKAKGQPREPQVYTLPPSRDELTKNQVSLTCLVKGFYPSDIAVEWESNGQPENNYKTTPPVLDSDGSFFLYSKLTVDKSRWQQGNVFSCSVMHEALHNAYTQKSLSLSPGK",–,no binding (tested: retention time below 3 minutes)
"IgG1 Fc-region with L234A/L235A/P329G and H310A/H435A (other, Symmetric mutations in both Fc chains) DKTHTCPPCPAPEAAGGPSVFLFPPKPKDTLMISRTPEVTCVVVDVSHEDPEVKFNWYVDGVEVHNAKTKPREEQYNSTYRVVSVLTVLAQDWLNGKEYKCKVSNKALGAPIEKTISKAKGQPREPQVYTLPPSRDELTKNQVSLTCLVKGFYPSDIAVEWESNGQPENNYKTTPPVLDSDGSFFLYSKLTVDKSRWQQGNVFSCSVMHEALHNAYTQKSLSLSPGK",–,no binding (tested: retention time below 3 minutes)
"IgG1 Fc-region with L234A/L235A/P329G and I253A/H310A (other, Symmetric mutations in both Fc chains) DKTHTCPPCPAPEAAGGPSVFLFPPKPKDTLMASRTPEVTCVVVDVSHEDPEVKFNWYVDGVEVHNAKTKPREEQYNSTYRVVSVLTVLAQDWLNGKEYKCKVSNKALGAPIEKTISKAKGQPREPQVYTLPPSRDELTKNQVSLTCLVKGFYPSDIAVEWESNGQPENNYKTTPPVLDSDGSFFLYSKLTVDKSRWQQGNVFSCSVMHEALHNHYTQKSLSLSPGK",–,no binding (tested: retention time below 3 minutes)
